Tested on: CN1CCC[C@H]1c1cccnc1
Assay: cells, lysate or membranes named
Conditions: other: nicotine demethylase reaction, yeast microsomes, 25° C., pH 7.1, mean±standard error

Work on NtabCYP82E5v2 (Nicotiana tabacum) yielded a Km of 5.6 ± 1.4 µM and a Vmax of 0.7±0.02 nmol min^−1 mg^−1 protein.

Source: US11293031B2
